Test results taken from doi:10.1101/2022.04.06.487297 (bioRxiv, 2022).

B1: Pyk2-PRR3 peptide (peptide)
peptide: EFTGPPQKPPRLGAQS
B2: Pyk2 super-mutant peptide (peptide)
peptide: TAFQEPAPKASQAQYRPPP
B3: Pyk2-PRR2 peptide (peptide)
peptide: TAFQEPPPKPSRPKYRPPP

Target: cortactin SH3 domain (UniProt Q60598 488-546)
Experiment: NMR titration

Sequence of cortactin SH3 domain (Q60598 488-546): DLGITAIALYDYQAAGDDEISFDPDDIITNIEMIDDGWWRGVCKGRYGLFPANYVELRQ

Kd [µM] | Binder
650 ± 10 | B1
> 1000 | B2
40 ± 5 | B3
